Laboratory results taken from patent US20230303994.

What was measured:
[1] = target: pre-pro-human insulin
[2] = target: pre-pro-insulin glargine

B1: trypsin variant SEQ ID NO: 100 (protein)
chain: IVGGYTCAANSIPYQVSLNSGSHRCGGSLINSQWVVSAAHCYKPRIQVRLGEHNIDVLEGNEQFINAAKIITHPNFNPNTLDNDIMLIKLSSPATLNSHVATVSLPTSCAAAGTECLISGWGNTCSSGSSMPSLLQCLKAPVLSDSSCKSSYPGQITGNMICVGFLEGGADACQGDSGGPVVCNGQLQGIVSSGYGCAQKNKPGVYTKVCNYVNWIQQTIAAN
Activity PPI cleavage [1]: yes
Selectivity [1]: >90%
Purity Insulin Glargine [2]: 80 area %
Yield [2]: > 80%
desArg [2]: 0.7 area %
desThr [2]: 0.3 area %

B2: trypsin variant SEQ ID NO: 111 (protein)
chain: IVGGYTCAANSIPYQVSLNSGSHRCGGSLINSQWVVSAAHCYKPRIQVRLGEHNIHVLEGNEQFINAAKIITHPNFNPNTLDNDIMLIKLSSPATLNSHVATVSLPTSCAAAGTECLISGWGNTSSSGSSYPSLLQCLKAPVLSDSSCKSSYPGQITGNMICVGFLEGGADACQGDSGGPVVCNGQLQGIVSSGYGCAQKNKPGVYTKVCNYVNWIQQTIAAN
Activity PPI cleavage [1]: yes
Selectivity [1]: >80%
Purity Insulin Glargine [2]: 85.9 area %
Yield [2]: > 90%
desArg [2]: 0.7 area %
desThr [2]: 2.6 area %

B3: trypsin variant SEQ ID NO: 104 (protein)
chain: IVGGYTCAANSIPYQVSLNSGSHRCGGSLINSQWVVSAAHCYKSRIQVRLGEHNIHVLEGNEQFINAAKIITHPNFNPNTLDNDIMLIKLSSPATLNSNVATVSLPTSCAAAGTECLISGWGNTCSSGSSMPSLLQCLKAPVLSDSSCKSSYPGQITGNMICVGFLEGGADACQGDSGGPVVCNGQLQGIVSSGYGCAQKNKPGVYTKVCNYVNWIQQTIAAN
Activity PPI cleavage [1]: yes
Selectivity [1]: >90%
Purity Insulin Glargine [2]: 89.3 area %
Yield [2]: > 90%
desArg [2]: 1.1 area %
desThr [2]: 1 area %

B4: trypsin variant SEQ ID NO: 110 (protein)
chain: IVGGYTCAANSIPYQVSLNSGSHRCGGSLINSQWVVSAAHCYKSRIQVRLGEHNIHVLEGNEQFINAAKIITHPNFNPNTLDNDIMLIKLSSPATLNSHVATVSLPRSCAAAGTECLISGWGNTCSSGSSMPSLLQCLKAPVLSDSSCKSSYPGQITGNMICVGFLEGGADACQGDSGGPVVCNGQLQGIVSSGYGCAQKNKPGVYTKVCNYVNWIQQTIAAN
Activity PPI cleavage [1]: yes
Selectivity [1]: >90%
Purity Insulin Glargine [2]: 90.6 area %
Yield [2]: > 90%
desArg [2]: 0.9 area %
desThr [2]: 0.6 area %

B5: trypsin variant SEQ ID NO: 115 (protein)
chain: IVGGYTCAANSIPYQVSLNSGSHRCGGSLINSQWVVSAAHCYKPRIQVRLGEHNIHVLEGNEQFINAAKIITHPNFNGNTLDNDIMLIKLSSPATLNSNVATVSLPTSCAAAGTECLISGWGNTSSSGSSMPSLLQCLKAPVLSDSSCKSSYPGQITGNMICVGFLEGGKDACQGDSGGPVVCNGQLQGIVSSGYGCAQKNKPGVYTKVCNYVNWIQQTIAAN
Activity PPI cleavage [1]: yes
Selectivity [1]: >90%
Purity Insulin Glargine [2]: 83.5 area %
Yield [2]: > 90%
desArg [2]: 0.8 area %
desThr [2]: 0.6 area %

B6: trypsin variant SEQ ID NO: 117 (protein)
chain: IVGGYTCAANSIPYQVSLNSGSHRCGGSLINSQWVVSAAHCYKPRIQVRLGEHNIHVLEGNEQFINAAKIITHPNFNGNTLDNDIMLIKLSSPATLNSNVATVSLPTSCAAAGTECLISGWGNTASSGSSMPSLLQCLKAPVLSDSSCKSSYPGQITGNMICVGFLEGGKDACQGDSGGPVVCNGQLQGIVSSGYGCAQKNKPGVYTKVCNYVNWIQQTIAAN
Activity PPI cleavage [1]: yes
Selectivity [1]: >90%
Purity Insulin Glargine [2]: 85 area %
Yield [2]: > 90%
desArg [2]: 0.6 area %
desThr [2]: 0.8 area %

B7: trypsin variant SEQ ID NO: 103 (protein)
chain: IVGGYTCAANSIPYQVSLNSGSHRCGGSLINSQWVVSAAHCYKPRIQVRLGEHNIHVLEGNEQFINAAKIITHPNFNPNTLDNDIMLIKLSSPATLNSHVATVSLPTSCAAAGTECLISGWGNTSSSGSSMPSLLQCLKAPVLSDSSCKSSYPGQITGNMICVGFLEGGADSCQGDSGGPVVCNGQLQGIVSSGYGCAQKNKPGVYTKVCNYVNWIQQTIAAN
Activity PPI cleavage [1]: yes
Selectivity [1]: >90%
Purity Insulin Glargine [2]: 90.7 area %
Yield [2]: > 90%
desArg [2]: 0.9 area %
desThr [2]: 1.4 area %

B8: trypsin variant SEQ ID NO: 102 (protein)
chain: IVGGYTCAANSIPYQVSLNSGSHRCGGSLINSQWVVSAAHCYKPRIQVRLGEHNIHVLEGNEQFINAAKIITHPNFNPNTLDNDIMLIKLSSPATLNSHVATVSLPTSCAAAGTECLISGWGNTSSSGSSMPSLLQCLKAPVLSDSSCKSSYPGQITGNMICVGFLEGGADACQGDSGGPVVCNGQLQGIVSSGYGCAQKNKPGVYTKVCNYVNWIQQTIAAN
Activity PPI cleavage [1]: yes
Selectivity [1]: >90%
Purity Insulin Glargine [2]: 88.7 area %
Yield [2]: > 90%
desArg [2]: 0.4 area %
desThr [2]: 1.2 area %

B9: trypsin variant SEQ ID NO: 101 (protein)
chain: IVGGYTCAANSIPYQVSLNSGSHRCGGSLINSQWVVSAAHCYKSRIQVRLGEHNIHVLEGNEQFINAAKIITHPNFNPNTLDNDIMLIKLSSPATLNSNVATVSLPTSCAAAGTECLISGWGNTSSSGSSMPSLLQCLKAPVLSDSSCKSSYPGQITGNMICVGFLEGGADACQGDSGGPVVCNGQLQGIVSSGYGCAQKNKPGVYTKVCNYVNWIQQTIAAN
Activity PPI cleavage [1]: yes
Selectivity [1]: >90%
Purity Insulin Glargine [2]: 89.2 area %
Yield [2]: > 90%
desArg [2]: 1 area %
desThr [2]: 0.4 area %

B10: trypsin variant SEQ ID NO: 116 (protein)
chain: IVGGYTCAANSIPYQVSLNSGSHRCGGSLINSQWVVSAAHCYKPRIQVRLGEHNIHVLEGNEQFINAAKIITHPNFNGNTLDNDIMLIKLSSPATLNSNVATVSLPTSCAAAGTECLISGWGNTSSSGSSMPSLLQCLKAPVLSDSSCKSSYPGQITGNMICVGFLEGGADACQGDSGGPVVCNGQLQGIVSSGYGCAQKNKPGVYTKVCNYVNWIQQTIAAN
Activity PPI cleavage [1]: yes
Selectivity [1]: >90%
Purity Insulin Glargine [2]: 82.7 area %
Yield [2]: > 90%
desArg [2]: 0.5 area %
desThr [2]: 0.6 area %

B11: trypsin variant SEQ ID NO: 109 (protein)
chain: IVGGYTCAANSIPYQVSLNSGSHRCGGSLINSQWVVSAAHCYKSRIQVRLGEHNIHVLEGNEQFINAAKIITHPNFNGNTLDNDIMLIKLSSPATLNSNVATVSLPTSCAAAGTECLISGWGNTCSSGSSMPSLLQCLKAPVLSDSSCKSSYPGQITGNMICVGFLEGGADACQGDSGGPVVCNGQLQGIVSSGYGCAQKNKPGVYTKVCNYVNWIQQTIAAN
Activity PPI cleavage [1]: yes
Selectivity [1]: >90%
Purity Insulin Glargine [2]: 85.9 area %
Yield [2]: > 80%
desArg [2]: 0.7 area %
desThr [2]: 0.5 area %

B12: trypsin variant SEQ ID NO: 107 (protein)
chain: IVGGYTCAANSIPYQVSLNSGSHRCGGSLINSQWVVSAAHCYKPRIQVRLGEHNIHVLEGNEQFINAAKIITHPNFNPNTLDNDIMLIKLSSPATLNSHVATVSLPTSCAAAGTECLISGWGNTCSSGSSMPSLLQCLKAPVLSDSSCKSSYPGQITGNMICVGFLEGGADACQGDSGGPVVCNGQLQGIVSSGYGCAQKNKPGVYTKVCNYVNWIQQTIAAN
Activity PPI cleavage [1]: yes
Selectivity [1]: >90%
Purity Insulin Glargine [2]: 88.1 area %
Yield [2]: > 90%
desArg [2]: 0.4 area %
desThr [2]: 1.3 area %

B13: porcine trypsin variant no. 105 (SEQ ID NO: 105) (protein)
chain: IVGGYTCAANSIPYQVSLNSGSHRCGGSLINSQWVVSAAHCYKSRIQVRLGEHNIHVLEGNEQFINAAKIITHPNFNPNTLDNDIMLIKLSSPATLNSNVATVSLPTSCAAAGTECLISGWGNTASSGSSYPSLLQCLKAPVLSDSSCKSSYPGQITGNMICVGFLEGGADACQGDSGGPVVCNGQLQGIVSSGYGCAQKNKPGVYTKVCNYVNWIQQTIAAN
Activity PPI cleavage [1]: yes
Selectivity [1]: >90%
Purity Insulin Glargine [2]: 88.9 area %
Yield [2]: > 90%
desArg [2]: 1 area %
desThr [2]: 0.9 area %

B14: trypsin variant SEQ ID NO: 113 (protein)
chain: IVGGYTCAANSIPYQVSLNSGSHRCGGSLINSQWVVSAAHCYKPRIQVRLGEHNIHVLEGNEQFINAAKIITHPNFNGNTLDNDIMLIKLSSPATLNSAVATVSLPTSCAAAGTECLISGWGNTASSGSSYPSLLQCLKAPVLSDSSCKSSYPGQITGNMICVGFLEGGADACQGDSGGPVVCNGQLQGIVSSGYGCAQKNKPGVYTKVCNYVNWIQQTIAAN
Activity PPI cleavage [1]: yes
Selectivity [1]: >90%
Purity Insulin Glargine [2]: 86.1 area %
Yield [2]: > 90%
desArg [2]: 0.5 area %
desThr [2]: 1.7 area %

B15: trypsin variant SEQ ID NO: 118 (protein)
chain: IVGGYTCAANSIPYQVSLNSGSHRCGGSLINSQWVVSAAHCYKPRIQVRLGEHNIHVLEGNEQFINAAKIITHPNFNGNTLDNDIMLIKLSSPATLNSHVATVSLPTSCAAAGTECLISGWGNTASSGSSMPSLLQCLKAPVLSDSSCKSSYPGQITGNMICVGFLEGGADACQGDSGGPVVCNGQLQGIVSSGYGCAQKNKPGVYTKVCNYVNWIQQTIAAN
Activity PPI cleavage [1]: yes
Selectivity [1]: >90%
Purity Insulin Glargine [2]: 87.6 area %
Yield [2]: > 90%
desArg [2]: 0.6 area %
desThr [2]: 1 area %

B16: trypsin variant SEQ ID NO: 108 (protein)
chain: IVGGYTCAANSIPYQVSLNSGSHRCGGSLINSQWVVSAAHCYKPRIQVRLGEHNIDVLEGNEQFINAAKIITHPNFNPNTLDNDIMLIKLSSPATLNSAVATVSLPTSCAAAGTECLISGWGNTCSSGSSMPSLLQCLKAPVLSDSSCKSSYPGQITGNMICVGFLEGGADACQGDSGGPVVCNGQLQGIVSSGYGCAQKNKPGVYTKVCNYVNWIQQTIAAN
Activity PPI cleavage [1]: yes
Selectivity [1]: >80%
Purity Insulin Glargine [2]: 88.8 area %
Yield [2]: > 90%
desArg [2]: 0.8 area %
desThr [2]: 0.7 area %

B17: trypsin variant SEQ ID NO: 106 (protein)
chain: IVGGYTCAANSIPYQVSLNSGSHRCGGSLINSQWVVSAAHCYKSRIQVRLGEHNIHVLEGNEQFINAAKIITHPNFNPNTLDNDIMLIKLSSPATLNSAVATVSLPTSCAAAGTECLISGWGNTCSSGSSMPSLLQCLKAPVLSDSSCKSSYPGQITGNMICVGFLEGGADACQGDSGGPVVCNGQLQGIVSSGYGCAQKNKPGVYTKVCNYVNWIQQTIAAN
Activity PPI cleavage [1]: yes
Selectivity [1]: >90%
Purity Insulin Glargine [2]: 86.8 area %
Yield [2]: > 90%
desArg [2]: 0.7 area %
desThr [2]: 1 area %
